Assay [1] deals with human MCSP expressed on tumor cells (human, UniProt Q6UVK1 30-2322). Briefly: cell-based or functional assay.
Assay [2] has as its target T1, human CD3 expressed on Jurkat cells (human, UniProt P07766 23-207).
T1 construct: CD3 complex on Jurkat cells (ATCC TIB-152); also called huCD3
Briefly: flow cytometry on Jurkat cells. How it is done:
Binding of the different bispecific constructs to CD3 on Jurkat cells (ATCC #TIB-152), and the respective tumor antigen on target cells, was determined by FACS. Briefly, cells were harvested, counted and checked for viability. 0.15 - 0.2 million cells per well (in PBS containing 0.1% BSA; 90 µl) were plated in a round-bottom 96-well plate and incubated with the indicated concentration of the bispecific constructs and corresponding IgG controls (10 µl) for 30 min at 4° C. For a better comparison, all constructs and IgG controls were normalized to same molarity. After the incubation, cells were centrifuged (5 min, 350 × g), washed with 150 µl PBS containing 0.1% BSA, resuspended and incubated for further 30 min at 4° C. with 12 µl/well of a FITC-or PE-conjugated secondary antibody. Bound constructs were detected using a FACSCantoII (Software FACS Diva). The “(scFv)₂” molecule was detected using a FITC-conjugated anti-His antibody (Lucerna, #RHIS-45F-Z). For all other molecules, a FITC- or PE-conjugated AffiniPure F(ab′)2 Fragment goat anti-human IgG Fcγ Fragment Specific (Jackson Immuno Research Lab # 109-096-098 / working solution 1:20, or #109-116-170 / working solution 1:80, respectively) was used. Cells were washed by addition of 120 µl/well PBS containing 0.1% BSA and centrifugation at 350 × g for 5 min. A second washing step was performed with 150 µl/well PBS containing 0.1% BSA. Unless otherwise indicated, cells were fixed with 100 µl/well fixation buffer (BD #554655) for 15 min at 4° C. in the dark, centrifuged for 6 min at 400 × g and kept in 200 µl/well PBS containing 0.1% BSA until the samples were measured with FACS CantoII. EC50 values were calculated using the GraphPad Prism software.
As a control, the equivalent maximum concentration of the corresponding IgGs and the background staining due to the labeled 2ndary antibody (goat anti-human FITC-conjugated AffiniPure F(ab′)2 Fragment, Fcγ Fragment-specific, Jackson Immuno Research Lab # 109-096-098) were assessed as well.

Assay [3] deals with T2, human CEA expressed on tumor cells (human, UniProt P06731 35-702).
T2 sequence (looked up): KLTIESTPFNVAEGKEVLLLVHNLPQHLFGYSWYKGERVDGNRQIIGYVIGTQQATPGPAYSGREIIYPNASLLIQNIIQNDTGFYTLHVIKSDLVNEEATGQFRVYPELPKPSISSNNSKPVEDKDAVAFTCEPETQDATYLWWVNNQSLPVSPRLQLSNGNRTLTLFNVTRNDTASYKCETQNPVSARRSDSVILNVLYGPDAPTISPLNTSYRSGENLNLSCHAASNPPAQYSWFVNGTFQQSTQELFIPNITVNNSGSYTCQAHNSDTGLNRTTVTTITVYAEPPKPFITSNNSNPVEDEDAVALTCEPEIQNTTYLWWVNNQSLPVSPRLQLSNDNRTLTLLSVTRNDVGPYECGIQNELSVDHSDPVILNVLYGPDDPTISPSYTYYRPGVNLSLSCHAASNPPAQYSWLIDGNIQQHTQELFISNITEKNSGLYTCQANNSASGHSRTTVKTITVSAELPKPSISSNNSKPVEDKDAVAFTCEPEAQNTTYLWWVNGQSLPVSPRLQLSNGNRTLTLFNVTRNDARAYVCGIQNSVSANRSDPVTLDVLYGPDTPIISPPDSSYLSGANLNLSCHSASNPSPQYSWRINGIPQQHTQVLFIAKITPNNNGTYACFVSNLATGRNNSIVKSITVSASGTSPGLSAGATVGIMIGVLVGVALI
Briefly: cell-based or functional assay.

human MCSP expressed on tumor cells, sequence (Q6UVK1 30-2322): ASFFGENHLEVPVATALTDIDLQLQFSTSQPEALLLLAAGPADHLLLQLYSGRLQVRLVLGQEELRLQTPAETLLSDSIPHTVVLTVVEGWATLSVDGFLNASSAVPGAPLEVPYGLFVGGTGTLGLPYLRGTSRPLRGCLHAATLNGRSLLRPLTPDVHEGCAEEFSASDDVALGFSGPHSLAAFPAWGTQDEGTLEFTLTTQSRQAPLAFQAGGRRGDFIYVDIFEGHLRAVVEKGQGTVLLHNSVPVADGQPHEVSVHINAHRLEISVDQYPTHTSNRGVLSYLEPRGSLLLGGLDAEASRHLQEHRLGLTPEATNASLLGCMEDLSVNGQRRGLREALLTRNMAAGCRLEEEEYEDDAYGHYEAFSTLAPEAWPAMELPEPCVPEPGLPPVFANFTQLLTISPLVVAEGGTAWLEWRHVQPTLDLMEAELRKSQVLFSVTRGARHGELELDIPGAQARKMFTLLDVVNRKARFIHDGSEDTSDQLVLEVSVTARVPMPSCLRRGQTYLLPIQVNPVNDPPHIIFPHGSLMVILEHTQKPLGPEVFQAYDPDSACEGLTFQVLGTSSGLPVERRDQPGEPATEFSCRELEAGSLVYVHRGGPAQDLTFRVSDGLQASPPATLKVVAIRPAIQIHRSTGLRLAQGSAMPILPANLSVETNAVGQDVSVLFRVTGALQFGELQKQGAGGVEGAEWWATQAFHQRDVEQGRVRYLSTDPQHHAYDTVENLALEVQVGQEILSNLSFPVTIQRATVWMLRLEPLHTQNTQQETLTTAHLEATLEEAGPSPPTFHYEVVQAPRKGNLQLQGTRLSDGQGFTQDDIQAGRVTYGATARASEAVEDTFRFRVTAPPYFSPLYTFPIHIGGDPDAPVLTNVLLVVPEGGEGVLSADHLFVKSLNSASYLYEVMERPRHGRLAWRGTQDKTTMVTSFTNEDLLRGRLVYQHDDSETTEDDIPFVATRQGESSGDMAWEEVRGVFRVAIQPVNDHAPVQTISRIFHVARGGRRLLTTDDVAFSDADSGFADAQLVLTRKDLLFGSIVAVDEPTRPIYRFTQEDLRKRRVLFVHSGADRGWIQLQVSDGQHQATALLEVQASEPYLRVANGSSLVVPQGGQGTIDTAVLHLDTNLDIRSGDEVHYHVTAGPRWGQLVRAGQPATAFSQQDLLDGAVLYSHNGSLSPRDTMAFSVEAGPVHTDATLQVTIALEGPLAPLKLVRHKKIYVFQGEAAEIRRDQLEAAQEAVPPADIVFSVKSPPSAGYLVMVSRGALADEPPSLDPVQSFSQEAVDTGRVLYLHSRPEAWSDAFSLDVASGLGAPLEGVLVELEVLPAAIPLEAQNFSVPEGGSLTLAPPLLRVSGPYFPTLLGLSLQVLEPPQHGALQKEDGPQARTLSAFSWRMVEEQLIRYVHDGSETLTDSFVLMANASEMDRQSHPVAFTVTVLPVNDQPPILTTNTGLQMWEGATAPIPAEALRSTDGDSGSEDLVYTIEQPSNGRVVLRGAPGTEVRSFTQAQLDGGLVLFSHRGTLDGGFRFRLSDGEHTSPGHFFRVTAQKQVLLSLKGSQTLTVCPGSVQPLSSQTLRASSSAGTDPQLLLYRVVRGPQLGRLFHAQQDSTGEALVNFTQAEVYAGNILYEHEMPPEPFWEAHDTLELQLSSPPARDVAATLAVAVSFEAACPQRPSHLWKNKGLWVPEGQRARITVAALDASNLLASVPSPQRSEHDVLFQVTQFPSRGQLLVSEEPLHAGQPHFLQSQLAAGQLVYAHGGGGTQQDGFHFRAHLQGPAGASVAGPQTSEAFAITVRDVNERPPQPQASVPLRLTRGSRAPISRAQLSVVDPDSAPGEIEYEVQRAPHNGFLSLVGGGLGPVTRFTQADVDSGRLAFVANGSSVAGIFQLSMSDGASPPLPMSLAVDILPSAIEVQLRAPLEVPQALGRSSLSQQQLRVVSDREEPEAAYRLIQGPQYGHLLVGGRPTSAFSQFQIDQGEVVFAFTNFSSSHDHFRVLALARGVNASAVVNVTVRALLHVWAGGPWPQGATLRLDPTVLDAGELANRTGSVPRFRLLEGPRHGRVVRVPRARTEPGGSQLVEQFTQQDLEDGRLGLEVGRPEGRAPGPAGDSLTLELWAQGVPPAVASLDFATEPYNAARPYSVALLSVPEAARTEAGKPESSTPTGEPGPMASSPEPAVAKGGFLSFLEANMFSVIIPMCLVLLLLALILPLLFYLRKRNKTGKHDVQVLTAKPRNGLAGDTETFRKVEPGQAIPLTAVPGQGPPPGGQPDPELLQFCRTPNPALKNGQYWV
T1 sequence (P07766 23-207 limits assumed): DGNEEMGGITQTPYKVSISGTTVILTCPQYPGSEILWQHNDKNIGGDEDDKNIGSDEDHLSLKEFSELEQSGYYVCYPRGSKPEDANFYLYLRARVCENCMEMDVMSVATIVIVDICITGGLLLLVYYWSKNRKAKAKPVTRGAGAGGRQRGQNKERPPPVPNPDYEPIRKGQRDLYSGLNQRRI

B1: “2+1 IgG Crossfab (CL/CH1)”; CL/CH1 exchange (M4-3 ML2/V9) (bispecific antibody)
heavy 1: not shown
heavy 2: QVQLQESGPGLVKPSQTLSLTCTVSGGSITSGYYWNWIRQHPGKGLEWIGYITYDGSNNYNPSLKSRVTISRDTSKNQFSLKLSSVTAADTAVYYCADFDYWGQGTLVTVSSASTKGPSVFPLAPSSKSTSGGTAALGCLVKDYFPEPVTVSWNSGALTSGVHTFPAVLQSSGLYSLSSVVTVPSSSLGTQTYICNVNHKPSNTKVDKKVEPKSCDKTHTCPPCPAPEAAGGPSVFLFPPKPKDTLMISRTPEVTCVVVDVSHEDPEVKFNWYVDGVEVHNAKTKPREEQYNSTYRVVSVLTVLHQDWLNGKEYKCKVSNKALGAPIEKTISKAKGQPREPQVCTLPPSRDELTKNQVSLSCAVKGFYPSDIAVEWESNGQPENNYKTTPPVLDSDGSFFLVSKLTVDKSRWQQGNVFSCSVMHEALHNHYTQKSLSLSPGK
light 1: not shown
light 2: DIQMTQSPSSLSASVGDRVTITCRASQDIRNYLNWYQQKPGKAPKLLIYYTSRLESGVPSRFSGSGSGTDYTLTISSLQPEDFATYYCQQGNTLPWTFGQGTKVEIKSSASTKGPSVFPLAPSSKSTSGGTAALGCLVKDYFPEPVTVSWNSGALTSGVHTFPAVLQSSGLYSLSSVVTVPSSSLGTQTYICNVNHKPSNTKVDKKVEPKSC
In the case of B1, in assay [1], the “EC50 of killing (LDH release) of MV-3 cells, human PBMCs, E:T 10:1, 27 h” value is ~11.7 pM and the “EC50 of killing (LDH release) of WM266-4 cells, human PBMCs, E:T 10:1, 26 h” value came to 12.9 pM.

B2: “1+1 IgG Crossfab light chain (LC) fusion” (CH1A1A/V9) (bispecific antibody)
heavy: not shown
chain: DKTHTCPPCPAPEAAGGPSVFLFPPKPKDTLMISRTPEVTCVVVDVSHEDPEVKFNWYVDGVEVHNAKTKPREEQYNSTYRVVSVLTVLHQDWLNGKEYKCKVSNKALGAPIEKTISKAKGQPREPQVCTLPPSRDELTKNQVSLSCAVKGFYPSDIAVEWESNGQPENNYKTTPPVLDSDGSFFLVSKLTVDKSRWQQGNVFSCSVMHEALHNHYTQKSLSLSPGK
light 1: DIQMTQSPSSLSASVGDRVTITCKASAAVGTYVAWYQQKPGKAPKLLIYSASYRKRGVPSRFSGSGSGTDFTLTISSLQPEDFATYYCHQYYTYPLFTFGQGTKLEIKRTVAAPSVFIFPPSDEQLKSGTASVVCLLNNFYPREAKVQWKVDNALQSGNSQESVTEQDSKDSTYSLSSTLTLSKADYEKHKVYACEVTHQGLSSPVTKSFNRGECGGGGSGGGGSGGGGSGGGGSEVQLVESGGGLVQPGGSLRLSCAASGYSFTGYTMNWVRQAPGKGLEWVALINPYKGVSTYNQKFKDRFTISVDKSKNTAYLQMNSLRAEDTAVYYCARSGYYGDSDWYFDVWGQGTLVTVSSASVAAPSVFIFPPSDEQLKSGTASVVCLLNNFYPREAKVQWKVDNALQSGNSQESVTEQDSKDSTYSLSSTLTLSKADYEKHKVYACEVTHQGLSSPVTKSFNRGEC
light 2: B1 light 2
notes: also called 1+1 IgG Crossfab LC fusion
With B2, the binding result in assay [2] is given as “binds”. Moreover, in assay [3], the “EC50 of killing (LDH release) of LS-174T cells, human PBMCs, E:T 10:1, 28 h” value came to 1560 pM; the “EC50 of killing (LDH release) of MC38-huCEA cells, human PBMCs, E:T 10:1, 24 h” value was ~3200 pM; the “EC50 of killing (LDH release) of MKN-45 cells, human PBMCs, E:T 10:1, 28 h” value was 213 pM.

B3: “2+1 IgG Crossfab (VL/VH)”; VL/VH exchange (M4-3 ML2/V9) (bispecific antibody)
heavy 1: not shown
heavy 2: B1 heavy 2
light 1: not shown
light 2: EVQLVESGGGLVQPGGSLRLSCAASGYSFTGYTMNWVRQAPGKGLEWVALINPYKGVSTYNQKFKDRFTISVDKSKNTAYLQMNSLRAEDTAVYYCARSGYYGDSDWYFDVWGQGTLVTVSSASVAAPSVFIFPPSDEQLKSGTASVVCLLNNFYPREAKVQWKVDNALQSGNSQESVTEQDSKDSTYSLSSTLTLSKADYEKHKVYACEVTHQGLSSPVTKSFNRGEC
For B3, in assay [1], the “EC50 of killing (LDH release) of MV-3 cells, human PBMCs, E:T 10:1, 27 h” value was ~82.2 pM and the “EC50 of killing (LDH release) of WM266-4 cells, human PBMCs, E:T 10:1, 26 h” value was determined as 16.8 pM.

B4: CD3/MCSP “1+1 CrossMab”; CL/CH1 exchange (LC007/V9) (bispecific antibody, human IgG1, kappa, L234A L235A)
heavy 1: not shown
heavy 2: EVQLQESGPGLVKPSQSLSLTCSVTGYSITSGYYWNWIRQFPGNKLEWMGYITYDGSNNYNPSLKNRISITRDTSKNQFFLKLNSVTTEDTATYYCADFDYWGQGTTLTVSSASTKGPSVFPLAPSSKSTSGGTAALGCLVKDYFPEPVTVSWNSGALTSGVHTFPAVLQSSGLYSLSSVVTVPSSSLGTQTYICNVNHKPSNTKVDKKVEPKSCDKTHTCPPCPAPEAAGGPSVFLFPPKPKDTLMISRTPEVTCVVVDVSHEDPEVKFNWYVDGVEVHNAKTKPREEQYNSTYRVVSVLTVLHQDWLNGKEYKCKVSNKALGAPIEKTISKAKGQPREPQVCTLPPSRDELTKNQVSLSCAVKGFYPSDIAVEWESNGQPENNYKTTPPVLDSDGSFFLVSKLTVDKSRWQQGNVFSCSVMHEALHNHYTQKSLSLSPGK
light 1: DIVLTQSPSSLSASLGDRVTISCSASQGIRNYLNWYQQRPDGTVKLLIYYTSSLHSGVPSRFSGSGSGTDYSLTISNLEPEDIATYYCQQYSKLPWTFGGGTKLEIKRTVAAPSVFIFPPSDEQLKSGTASVVCLLNNFYPREAKVQWKVDNALQSGNSQESVTEQDSKDSTYSLSSTLTLSKADYEKHKVYACEVTHQGLSSPVTKSFNRGEC
light 2: B1 light 2
In the case of B4, in assay [1], the “EC50 of killing (LDH release) of MV-3 cells, human PBMCs, E:T 10:1, 21 h” value was 88.4 pM and the “EC50 of killing (LDH release) of WM266-4 cells, human PBMCs, E:T 10:1, 21 h” value is 53.9 pM.

B5: CD3/MCSP “1+1 IgG Crossfab”; VL/VH exchange (LC007/V9) (bispecific antibody)
heavy: DIQMTQSPSSLSASVGDRVTITCRASQDIRNYLNWYQQKPGKAPKLLIYYTSRLESGVPSRFSGSGSGTDYTLTISSLQPEDFATYYCQQGNTLPWTFGQGTKVEIKSSASTKGPSVFPLAPSSKSTSGGTAALGCLVKDYFPEPVTVSWNSGALTSGVHTFPAVLQSSGLYSLSSVVTVPSSSLGTQTYICNVNHKPSNTKVDKKVEPKSCGGGGSGGGGSEVQLQESGPGLVKPSQSLSLTCSVTGYSITSGYYWNWIRQFPGNKLEWMGYITYDGSNNYNPSLKNRISITRDTSKNQFFLKLNSVTTEDTATYYCADFDYWGQGTTLTVSSASTKGPSVFPLAPSSKSTSGGTAALGCLVKDYFPEPVTVSWNSGALTSGVHTFPAVLQSSGLYSLSSVVTVPSSSLGTQTYICNVNHKPSNTKVDKKVEPKSCDKTHTCPPCPAPEAAGGPSVFLFPPKPKDTLMISRTPEVTCVVVDVSHEDPEVKFNWYVDGVEVHNAKTKPREEQYNSTYRVVSVLTVLHQDWLNGKEYKCKVSNKALGAPIEKTISKAKGQPREPQVCTLPPSRDELTKNQVSLSCAVKGFYPSDIAVEWESNGQPENNYKTTPPVLDSDGSFFLVSKLTVDKSRWQQGNVFSCSVMHEALHNHYTQKSLSLSPGK
chain: not shown
light 1: B4 light 1
light 2: B3 light 2
On to B5, for which, in assay [1], the “EC50 of killing (LDH release) of MV-3 cells, human PBMCs, E:T 10:1, 21 h” value was 40.9 pM and the “EC50 of killing (LDH release) of WM266-4 cells, human PBMCs, E:T 10:1, 21 h” value was 28.4 pM.
